Measured values taken from the supplement of paper PMC12042874.
± gives the uncertainty stated by the source.

Test: amyloid nucleation score (Sup35N fusion, yeast selection) (log enrichment); library NNK2; higher = more nucleation; inactive = no reads after selection
How it was run: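 The nucleation score is the DiMSum log enrichment of output over input reads, centred on the mode score of non-aggregating sequences. Only sequences with 100 or more input reads were scored, using Illumina sequencing of input and output plasmid inserts. Psi-negative yeast expressing Sup35N fused to peptides of 20 random codons were induced 24 hours with 100 μM copper sulfate and grown 7 days at 30°C on medium lacking adenine and uracil.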
RMIYGSRRFDVDIFYFGIRN gave an amyloid nucleation score of 4.24 ± 0.074.
Work on RMLLQGVKAVGRGNNGINTV yielded an amyloid nucleation score of 0.479 ± 0.8.
With RMLSLGNYGSNAYICCIVCY the amyloid nucleation score was 1.92 ± 0.36.
With RMNFLA the amyloid nucleation score was -0.145 ± 0.5.
Work on RMRVIISR yielded an amyloid nucleation score of -0.881 ± 0.4.
RMSVYNF gave an amyloid nucleation score of -0.177 ± 0.79.
With RMTEA the amyloid nucleation score was 2.32 ± 0.21.
Work on RNARDSQYDISGACGLFRDR yielded an amyloid nucleation score of -0.287 ± 0.27.
RNIRWPAHISAGDKGVSGEF showed an amyloid nucleation score of -0.65 ± 1.
With RNRCSSDFGSGRINVDGFNM the amyloid nucleation score was “inactive”.
With RNRRVWM the amyloid nucleation score was -0.003 ± 0.41.
RNSAHNLEMFYRGMWDGMCW gave an amyloid nucleation score of -0.429 ± 0.55.
Work on RNSVFPILLAYDASDFVARK yielded an amyloid nucleation score of -0.494 ± 0.41.
With RNYLNMVYGLFFCIHCSCFS the amyloid nucleation score was 5.853 ± 0.05.
Work on RNYRIETSSNVIKV yielded an amyloid nucleation score of 0.292 ± 0.65.
Work on RPFLSTEKRSILMCRVVKGM yielded an amyloid nucleation score of -0.254 ± 0.37.
With RPKLGSSVVRHVMFIGWGCG the amyloid nucleation score was 0.797 ± 0.43.
RPLCLLGRVATSKETSGRRC showed an amyloid nucleation score of 4.34 ± 0.049.
RQGPALFSKINIATLKWLSM showed an amyloid nucleation score of 0.511 ± 0.62.
Work on RQVAPMHLYIYSACNGAKNR yielded an amyloid nucleation score of 7.095 ± 0.062.
Substance RRFLYPVGRGICMENADPFG has an amyloid nucleation score of 1.29 ± 0.44.
With RRGGDKVIISEHV the amyloid nucleation score was -0.757 ± 0.45.
RRGSELINYRR showed an amyloid nucleation score of -0.341 ± 0.79.
In the case of RRIINWPNSGIGIPRSKSMF, the amyloid nucleation score is reported as “inactive”.
For RRIKPIVLPTVCFYYVSITS, the amyloid nucleation score was “inactive”.
In the case of RRKANRVQFLSEYFLVCFVH, the amyloid nucleation score is reported as “inactive”.
RRLGYPYFTR gave an amyloid nucleation score of -0.743 ± 0.44.
RRLYF showed an amyloid nucleation score of -0.561 ± 0.52.
In the case of RRNNNFLWIDLNLMLPCYDW, the amyloid nucleation score is reported as 7.75 ± 0.08.
Substance RRNTLRYARMKSRYSFAP has an amyloid nucleation score of -0.674 ± 0.79.
Work on RRRCFQLK yielded an amyloid nucleation score of 0.294 ± 0.8.
Substance RRRIWATM has an amyloid nucleation score of -0.12 ± 0.31.
RRSFTTADTCLLIS showed an amyloid nucleation score of -0.695 ± 0.54.
RRSQLRLILTFR showed an amyloid nucleation score of -0.223 ± 0.29.
With RRVDWDYLPLFMQAAPYSWK the amyloid nucleation score was -0.197 ± 0.22.
RRVGTC gave an amyloid nucleation score of -0.097 ± 0.74.
For RRVSAIYYRSLCCLAHYFRL, the amyloid nucleation score was 0.219 ± 1.
With RRWQTTS the amyloid nucleation score was “inactive”.
RRYAKNMFRDLGWPVPTRSD showed an amyloid nucleation score of 3.09 ± 0.11.
With RRYHRR the amyloid nucleation score was 1.42 ± 0.38.
In the case of RRYKVDYTPSCIESPGVVLA, the amyloid nucleation score is reported as -1.19 ± 0.78.
In the case of RSCSMMVVHLYRGYGKFDTP, the amyloid nucleation score is reported as -0.354 ± 0.76.
RSDMCSAMIFWSELVKWQDG gave an amyloid nucleation score of 3.84 ± 0.091.
Work on RSDMH yielded an amyloid nucleation score of 0.673 ± 0.44.
RSDVSLVYNLWALWWAR gave an amyloid nucleation score of 0.906 ± 0.52.
RSFRECQDCGMQMFISRRLV gave an amyloid nucleation score of 0.15 ± 0.18.
For RSFYIAVSYMGCICIMPIRR, the amyloid nucleation score was 2.89 ± 0.13.
Substance RSGLYM has an amyloid nucleation score of -0.55 ± 0.64.
Work on RSILSCEGPDSLLEAFNEQI yielded an amyloid nucleation score of 0.625 ± 0.64.
With RSITGCDWFLH the amyloid nucleation score was 0.063 ± 1.1.
In the case of RSKFLFYIYSGFEIRRKINT, the amyloid nucleation score is reported as “inactive”.
For RSLDIARAY, the amyloid nucleation score was -1.06 ± 0.4.
RSNSMMLCFASDIVRFYHMG showed an amyloid nucleation score of 2.71 ± 0.14.
In the case of RSRARSWFLDKDMLLSKDRA, the amyloid nucleation score is reported as “inactive”.
Work on RSSLMYARIHCGEVRRNFLC yielded an amyloid nucleation score of 0.177 ± 0.62.
For RSSSNWSTSGGILRYVVLPK, the amyloid nucleation score was -0.151 ± 0.42.
Work on RSTISYDSSAQYCGGWLGLW yielded an amyloid nucleation score of -0.717 ± 1.
Substance RSVRSFCVWKVELFVRSEGM has an amyloid nucleation score of 2.01 ± 0.15.
For RSVWNASAFVAIFFRVRSQA, the amyloid nucleation score was 0.547 ± 0.36.
Work on RSYVHYGLLAWCYIRVSWDP yielded an amyloid nucleation score of 0.428 ± 0.44.
In the case of RTCTNYVMINETVVR, the amyloid nucleation score is reported as “inactive”.
With RTERSAFLLAPGNGLSRVRR the amyloid nucleation score was 0.831 ± 0.4.
In the case of RTISMYEELVTELRNSVM, the amyloid nucleation score is reported as -0.283 ± 0.33.
In the case of RTLGHSLYPIDIYMGSDHLG, the amyloid nucleation score is reported as “inactive”.
RTNFVNGLAVVVRNM showed an amyloid nucleation score of -0.015 ± 0.45.
RTPCVHMPHAVSLGLVALLL gave an amyloid nucleation score of -0.318 ± 0.76.
With RTQSLASQ the amyloid nucleation score was 0.144 ± 0.56.
Work on RTSKGAA yielded an amyloid nucleation score of 1.21 ± 0.45.
In the case of RTSKPLRRMNQRGLDFACAL, the amyloid nucleation score is reported as 1.04 ± 0.41.
RTSSTR showed an amyloid nucleation score of 0.468 ± 0.28.
For RTVYFCQN, the amyloid nucleation score was -1.5 ± 1.1.
With RTWCPLG the amyloid nucleation score was 0.486 ± 0.41.
Work on RVDARERNELDGIYFIVGSS yielded an amyloid nucleation score of -0.271 ± 1.
Work on RVHRLQTEEVMYSSGSK yielded an amyloid nucleation score of 4.96 ± 0.065.
With RVLADVKRYRECQTRCRDAW the amyloid nucleation score was 1.04 ± 0.34.
With RVLTKYMFMILFSSSFSYVR the amyloid nucleation score was 0.154 ± 0.5.
Work on RVLVVYRSLKVAESLSLTSV yielded an amyloid nucleation score of 0.093 ± 0.33.
For RVMSHT, the amyloid nucleation score was 0.658 ± 0.51.
For RVNFSGIDVVRLFHYCFYMK, the amyloid nucleation score was -1.51 ± 0.76.
RVPTSNLWSGNFYTALRVTG gave an amyloid nucleation score of -0.833 ± 0.63.
With RVPTVLFFLIVDFSCPPFSC the amyloid nucleation score was “inactive”.
Work on RVRNMS yielded an amyloid nucleation score of 0.1 ± 0.32.
For RVSIVCWIFVDSREHFFSVK, the amyloid nucleation score was -0.818 ± 0.55.
For RVSLTIYKC, the amyloid nucleation score was 3.24 ± 0.12.
In the case of RVTRG, the amyloid nucleation score is reported as “inactive”.
In the case of RVVWWVVGFS, the amyloid nucleation score is reported as -0.297 ± 0.56.
With RVYLMLLVQYRTWSYVFVDC the amyloid nucleation score was -0.402 ± 0.26.
